Data published in article PMC5643558.
Values belong to the substance of their own block, whether it stands above or below them.

Legend:
[1] = biological target: TRIM21 (UniProt P19474); test: SFB-TRIM21 pull-down from cells, Flag blot; settings: reference: WT Flag-rPFKP, EGF; sites S386
[2] = biological target: TRIM21 (UniProt P19474); test: S-tag pull-down after in vitro kinase assay; settings: sites S386

binding against the reference [1]: stronger
Substance: PFKP (phosphofructokinase 1 platelet isoform) (from UniProt Q01813) Flag-rPFKP S386A, EGF

binding against the reference ([2]; reference: WT PFKP incubated with active GST-AKT1): stronger
Substance: PFKP (phosphofructokinase 1 platelet isoform) (from UniProt Q01813) PFKP S386A incubated with active GST-AKT1

binding against the reference ([2]; reference: WT PFKP without AKT1): weaker
Substance: PFKP (phosphofructokinase 1 platelet isoform) (from UniProt Q01813) WT PFKP incubated with active GST-AKT1
